Experimental findings from PMC10470207, “Activation of human RNA lariat debranching enzyme Dbr1 by binding protein TTDN1 occurs though an intrinsically disordered C-terminal domain” (The Journal of Biological Chemistry, 2023) are described below.

Series [1] concerns the molecule itself. In words: AUC; proteins diluted to 0.9 A280 in Q-A buffer (20 mM Tris pH 8, 50 mM NaCl, 1 mM TCEP); 40,000 RPM; analysed with Ultrascan.
The target of series [2] is T1, human RNA lariat debranching enzyme Dbr1, full-length (1-544) (human, UniProt Q9UK59 1-544).
T1 sequence (looked up): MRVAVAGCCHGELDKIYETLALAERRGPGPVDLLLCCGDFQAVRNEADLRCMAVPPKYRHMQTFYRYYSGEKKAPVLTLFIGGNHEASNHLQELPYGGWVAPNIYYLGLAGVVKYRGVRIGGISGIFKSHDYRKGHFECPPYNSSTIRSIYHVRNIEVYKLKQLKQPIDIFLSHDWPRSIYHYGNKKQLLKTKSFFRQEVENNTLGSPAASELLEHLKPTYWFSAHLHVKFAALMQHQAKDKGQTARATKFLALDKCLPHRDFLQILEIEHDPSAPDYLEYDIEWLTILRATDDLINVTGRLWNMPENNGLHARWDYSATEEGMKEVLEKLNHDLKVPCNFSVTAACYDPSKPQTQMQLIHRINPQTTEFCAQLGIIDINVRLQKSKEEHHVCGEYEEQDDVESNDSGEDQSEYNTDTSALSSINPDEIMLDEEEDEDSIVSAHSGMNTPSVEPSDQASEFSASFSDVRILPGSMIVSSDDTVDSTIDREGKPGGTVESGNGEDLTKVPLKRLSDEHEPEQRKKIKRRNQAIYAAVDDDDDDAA
In words: cell-based or functional assay.

In series [3] the target is T1, human RNA lariat debranching enzyme …. Nature of the series: fluorescence polarisation; fluorescein-labeled TTDN1 fixed at 2.5 nM; unlabeled Dbr1 titrated (3-fold dilution from 2.8 uM to 1 nM) or Drn1 at 225 nM; SEC buffer; black 96-well half-area plates. The note with it: both partners purified. On the technique in general: Fluorescence polarisation rises when a labelled molecule tumbles more slowly, as on binding a larger partner.

For series [4] the target is unchanged. In words: SEC; Superdex 200-Increase 10/300 in SEC buffer (50 mM Tris pH 8, 100 mM NaCl, 1 mM TCEP); about 100 ug Dbr1 injected, Drn1 added at an equimolar ratio; peak fraction on a Coomassie-stained denaturing gel. As to conditions: both partners purified.

B1: human Dbr1 truncated after residue 399 (Dbr1-399) (domain or fragment, UniProt Q9UK59 1-399, looked up)
chain: MRVAVAGCCHGELDKIYETLALAERRGPGPVDLLLCCGDFQAVRNEADLRCMAVPPKYRHMQTFYRYYSGEKKAPVLTLFIGGNHEASNHLQELPYGGWVAPNIYYLGLAGVVKYRGVRIGGISGIFKSHDYRKGHFECPPYNSSTIRSIYHVRNIEVYKLKQLKQPIDIFLSHDWPRSIYHYGNKKQLLKTKSFFRQEVENNTLGSPAASELLEHLKPTYWFSAHLHVKFAALMQHQAKDKGQTARATKFLALDKCLPHRDFLQILEIEHDPSAPDYLEYDIEWLTILRATDDLINVTGRLWNMPENNGLHARWDYSATEEGMKEVLEKLNHDLKVPCNFSVTAACYDPSKPQTQMQLIHRINPQTTEFCAQLGIIDINVRLQKSKEEHHVCGEYEEQ
notes: source: E. coli, purified
With B1, in series [1], the binding result is given as “binds”.

B2: human Dbr1 truncated after residue 502 (Dbr1-502) (domain or fragment, UniProt Q9UK59 1-502, looked up)
chain: MRVAVAGCCHGELDKIYETLALAERRGPGPVDLLLCCGDFQAVRNEADLRCMAVPPKYRHMQTFYRYYSGEKKAPVLTLFIGGNHEASNHLQELPYGGWVAPNIYYLGLAGVVKYRGVRIGGISGIFKSHDYRKGHFECPPYNSSTIRSIYHVRNIEVYKLKQLKQPIDIFLSHDWPRSIYHYGNKKQLLKTKSFFRQEVENNTLGSPAASELLEHLKPTYWFSAHLHVKFAALMQHQAKDKGQTARATKFLALDKCLPHRDFLQILEIEHDPSAPDYLEYDIEWLTILRATDDLINVTGRLWNMPENNGLHARWDYSATEEGMKEVLEKLNHDLKVPCNFSVTAACYDPSKPQTQMQLIHRINPQTTEFCAQLGIIDINVRLQKSKEEHHVCGEYEEQDDVESNDSGEDQSEYNTDTSALSSINPDEIMLDEEEDEDSIVSAHSGMNTPSVEPSDQASEFSASFSDVRILPGSMIVSSDDTVDSTIDREGKPGGTVESGNG
notes: source: E. coli, purified
With B2, in series [1], the binding result is given as “binds”.

B3: trichothiodystrophy nonphotosensitive 1 (TTDN1), fluorescein-labeled (natural protein, UniProt Q8TAP9 1-179, looked up)
chain: MQRQNFRPPTPPYPGPGGGGWGSGSSFRGTPGGGGPRPPSPRDGYGSPHHTPPYGPRSRPYGSSHSPRHGGSFPGGRFGSPSPGGYPGSYSRSPAGSQQQFGYSPGQQQTHPQGSPRTSTPFGSGRVREKRMSNELENYFKPSMLEDPWAGLEPVSVVDISQQYSNTQTFTGKKGRYFC
modifications: 5-iodoacetamido-fluorescein label on the cysteine residue at the C terminus
notes: trichothiodystrophy nonphotosensitive 1 (TTDN1); codon-optimized expression plasmid ordered from GenScript; The debranching (functional) assays used unlabeled, GuHCl-solubilized TTDN1 of the same construct; also called labeled TTDN1
The Kd is a measure of binding affinity in units of concentration. Read a high Kd as weaker binding. Consider B3, for which, in series [2], the “catalytic efficiency of Dbr1 debranching of a fluorescent branched RNA substrate, TTDN1:Dbr1 mixture at 10:1 molar ratio (unlabeled, GuHCl-solubilized TTDN1), relative to Dbr1 alone” value amounted to 19 fold. The molecule further displayed a dissociation constant Kd in series [3] of roughly 3 nM.

B4: Drn1 (human Drn1 homolog, Cwf19-L1) (natural protein, UniProt Q69YN2 1-538, looked up)
chain: MAQKPLRLLACGDVEGKFDILFNRVQAIQKKSGNFDLLLCVGNFFGSTQDAEWEEYKTGIKKAPIQTYVLGANNQETVKYFQDADGCELAENITYLGRKGIFTGSSGLQIVYLSGTESLNEPVPGYSFSPKDVSSLRMMLCTTSQFKGVDILLTSPWPKCVGNFGNSSGEVDTKKCGSALVSSLATGLKPRYHFAALEKTYYERLPYRNHIILQENAQHATRFIALANVGNPEKKKYLYAFSIVPMKLMDAAELVKQPPDVTENPYRKSGQEASIGKQILAPVEESACQFFFDLNEKQGRKRSSTGRDSKSSPHPKQPRKPPQPPGPCWFCLASPEVEKHLVVNIGTHCYLALAKGGLSDDHVLILPIGHYQSVVELSAEVVEEVEKYKATLRRFFKSRGKWCVVFERNYKSHHLQLQVIPVPISCSTTDDIKDAFITQAQEQQIELLEIPEHSDIKQIAQPGAAYFYVELDTGEKLFHRIKKNFPLQFGREVLASEAILNVPDKSDWRQCQISKEDEETLARRFRKDFEPYDFTLDD
notes: human Drn1 homolog (Cwf19-L1); cDNA purchased from Genecopoeia, subcloned into a modified pET vector; source: E. coli BL21, purified (Ni column, Superdex-200)
One may read the stoichiometry N as a count of units in the complex or per binding partner. Consider B4, for which the “stoichiometry N” value in series [4] was determined as 1.
